No end group written: not given here.
Tests used:
[1] = target: T1, soluble IGF-1R (recombinant human IGF-1R extracellular domain, R&D Systems Cat. # 391-GR/CF) (human, UniProt P08069 31-935); test: phage ELISA
T1 construct: extracellular domain; Bought protein; coated on plates (phage ELISA, TRF) or Eu-labelled (TR-FRET); also called sIGF-1R; rhIGF-1R

[2] = target: T2, soluble human insulin receptor-immunoglobulin heavy chain chimera (human, UniProt P06213 28-956, limits assumed); test: phage ELISA
T2 construct: extracellular domain; also called sIR-Fc; IR (prepared according to Bass et al., 1996); not shown: immunoglobulin heavy chain constant domains (Bass et al., 1996)

| Binder | ratio over background [1] [ratio] | ratio over background [2] [ratio] | IR/IGF-1R ratio comparison [2] [ratio] |
| --- | --- | --- | --- |
| IWATGDFYRLLSQLVMGRVGT (on phage) [20E2B-2-28-IGFR] | 5.7 | 0.8 | – |
| LRIANLFYQRLWDLAFGGGG (on phage) [20E2B-3-E8-IGFR] | 16.7 | 1.5 | – |
| TFYSCLASLLTGTPQPNRGPWERCR (on phage) [20C-3-G3-IGFR] | 32.3 | 1.2 | – |
| QFYGCLLDLSLGVPSFGWRRRCITA (on phage) [20C-3-A4-IGFR] | 8.8 | 1.2 | – |
| YSCGDGFYSLLSDLLGGQFRC (on phage) [20E22-4-H12-IGFR] | 9.7 | 0.8 | – |
| PVGVQGFYEGLSRLVLGRGGW (on phage) [20E2B-4-F8-IGFR] | 7.3 | 0.8 | – |
| RFSTDGFYQYLLALVGGGPVG (on phage) [20E2B-1-A11-IGFR] | 9.5 | 1 | – |
| VGRASGFPENFYDWFGRQLSLQSGEQ (on phage) [M2CA-4-H6-IGFR] | 10.5 | 0.7 | – |
| FRTLAAQHDSFYDWFDRQVSGAAGER (on phage) [H2CA-3-C11-IGFR] | 3.3 | 1.6 | – |
| VERSASSQDGNFYDWFVVQIR (on phage) [A6S-2-D1-IR] | 30.6 | 12 | – |
| GNGDGMFYQLLSLLVGRDMHV (on phage) [20E2B-3-C2-IGFR] | 8.9 | 0.6 | – |
| ICTGQGFYQVLCGLLRGTSAR (on phage) [20E2B-2-B3-IGFR] | 5.3 | 0.7 | – |
| VATSQGFYSGLSELLQGGGNV (on phage) [20E2B-3-E12-IGFR] | 6 | 0.8 | – |
| RGMKEEVLVGGSTDPFYHKLSELLQGS (on phage) [B6Hα-3-F11-IR] | 18.7 | 1.6 | – |
| FFYDCLAALLQGVARYHDLCAVEIT (on phage) [20C-4-C7-IGFR] | 28 | 1.3 | – |
| DRDFCRFYERLTALVGGQVDGGWPC (on phage) [20C-3-F6-IGFR] | 26.1 | 1.9 | – |
| NSRDGGFYLQLERLLGFPVTG (on phage) [20E2B-3-D4-IGFR] | 7.9 | 0.8 | – |
| GVRAMSFYDALVSVLGLGPSG (on phage) [20E2B-1-A6-IGFR] | 18.1 | 1.1 | – |
| RGCNDDGGKGWSDDPFYHKLSELICGG (on phage) [B6Hα-1-A2-IR] | – | 1 | – |
| RGAVAGFHDQFYDWFDRQVSRVHKFG (on phage) [H2CA-4-H9-IGFR] | 5.6 | – | – |
| SSYGCDGFYLMLFSLGLVASQELEC (on phage) [20C-3-A1-IGFR] | 20.8 | 1.5 | – |
| YRGMLVLGRSSDGAGKVAFERPARIGQTVFAVNFYDWFV (on phage) [A6L-0-E6-IR] | 31 | 1.8 | – |
| SQAGSAFYAWFDQVLRTVHSA (on phage) [20E2Bβ-4-G6-IR] | 6.2 | – | – |
| VGYQGQGDENFYDWFIRQVSGRLGVQ (on phage) [H2CA-4-F5-IGFR] | 9.7 | 0.8 | – |
| RGIVAMVEATEVGSDHDPFYHKLSELVQGS (on phage) [B6Hα-2-C7-IR] | – | 1 | – |
| TSEVQRRSQDNFYDWFVAQVA (on phage) [A6S-3-E2-IR] | 24.7 | 9.8 | – |
| PDLHKGFYAQLAQLIRGQLLS (on phage) [20E2B-3-E3-IGFR] | 16.3 | 1.3 | – |

| Binder | ratio over background [1] [ratio] | ratio over background [2] [ratio] | IR/IGF-1R ratio comparison [2] [ratio] |
| --- | --- | --- | --- |
| DRAFYNGLRDLVGAVYGAWD (on phage) [R20α-4-20C11-IR] | 30.8 | 3 | – |
| KLHNLMFYYGLQRLVWGAGLG (on phage) [20E23-4-H3-IGFR] | 14.8 | 1.1 | – |
| LGYQEPFQQNFYDWFVRQVSGAENAG (on phage) [H2CA-3-E8-IGFR] | 6.3 | 2.2 | – |
| RCEEKQAEVGPSSDPFYHKMSELLGCR (on phage) [B6Ha-3-E9-IR] | 24.2 | 1.7 | – |
| FYDAIDQLVRGSARAGGTRD (on phage) [R20α-3-20E2-IR] | 39.9 | 3.1 | – |
| IQQELTFYDLLHRLVRSELGS (on phage) [20E2B-3-D2-IGFR] | 12.4 | 1.1 | – |
| QGGSASFYDAIDRLLRMRIGG (on phage) [20E2A-4-F11-IGFR] | 18.8 | 1.3 | – |
| LQPCSGFYECIERLIGVKLSG (not fully specified (bridges); cysteine pairing not given here, on phage) [20E2Bβ-4-G7-IR] | 25.2 | 1.6 | – |
| SACQFDCHENFYDWFARQVSGGAAYG (on phage) [H2CA-4-E8-IGFR] | 9.2 | 1 | – |
| VEGRGLFYDLLRQLLARRQNG (on phage) [20E2B-3-C6-IGFR] | 16.8 | 1.1 | – |
| GFREGSFYDWFQAQVT (on phage) [E4Dα-2-D11-IR] | 11.1 | 3.3 | – |
| AQPCGGFYGLLEQLVGRSVCD (on phage) [20E2B-4-F10-IGFR] | 17.3 | 2.2 | – |
| QPAPDGFYSALMKLIGRGGVS (on phage) [20E2B-3-C8-IGFR] | 15.6 | 1.8 | – |
| GGTEVDFYRALERLVRGQLGL (on phage) [20E2B-3-D8-IGFR] | 17.7 | 1.6 | – |
| LGVTDGFYAALGYLIHGVGQF (on phage) [20E2B-3-D11-IGFR] | 12.2 | 1.6 | – |
| EAASLGSQDRNFYDWFVRQVV (on phage) [A6S-2-D11-IR] | 37.4 | 13.5 | – |
| QGNVLDFYGWIGRLLAKQGSD (on phage) [20E2B-3-D12-IGFR] | 6.2 | 0.9 | – |
| PGTDLGFYQALRCVVIQGACD (on phage) [20E2B-2-B2-IGFR] | 4.9 | 0.6 | – |
| HLADGQFHEKFYDWFERQISSRCNDC (on phage) [E2CA-3-E11-IGFR] | – | 1 | – |
| RGQSDAFYSGLWALIGLSDG (on phage) [R20β-4-A6-IR] | 25.9 | 1.5 | – |
| AICDAGFHEHFYDWFALQVSDCGRQS (on phage) [H2CA-2-B11-IGFR] | 4.6 | 1.6 | 0.3 |
| GRTMAVMAAGGPDDPFYHKLSELVQGG (on phage) [B6Hα-2-D6-IR] | – | 1 | – |
| RLFYCGIQALGANLGYSGCV (on phage) [R20α-4-20A12-IR] | 39.9 | 2.4 | – |
| SAAQLFFQESFYDWFLRQVAESSQPN (on phage) [H2CA-4-F11-IGFR] | 6.8 | 1 | – |
| QPDHSYFYSLLQELVGSEERL (on phage) [20E2B-4-F9-IGFR] | 14.7 | – | – |
| YRGMLVLGRISGGAGKAASERPARIGQKVSAVNFYDWFV (on phage) [A6L-0-E3-IR] | 26 | – | – |
